± gives the uncertainty stated by the source.
Assay: amyloid nucleation score (Sup35N fusion, yeast selection) (log enrichment); library NNK2; higher = more nucleation; inactive = no reads after selection
How it was run: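 The nucleation score equals the log enrichment of output over input reads from DiMSum, centred on the mode score of non-aggregating sequences. It was computed only for sequences with 100 or more input reads. The reads came from Illumina sequencing of plasmid inserts from psi-negative yeast expressing Sup35N fused to peptides of 20 random codons, induced with 100 μM copper sulfate for 24 hours and grown 7 days at 30°C without adenine and uracil.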

| Substance | amyloid nucleation score |
| --- | --- |
| ACFNLEKIVINYFWFS | 6.999 ± 0.039 |
| ACFWSVIVHTMKRTVQPQPK | 3.6 ± 0.09 |
| ACKVYKLAMNIVLGGTGWSD | 4.8 ± 0.077 |
| ACLGHSLAVVRTMTDSRKRL | 0.367 ± 0.74 |
| ACLHFVSYSELAVFDFSFGK | 6.89 ± 0.079 |
| ACRAICVPKGVGYWFCVTSE | 0.54 ± 0.51 |
| ACRELVWLG | 0.354 ± 0.65 |
| ACSVNCLRECNR | inactive |
| ADATGVECPIYDRRRVNRTN | -0.235 ± 0.8 |
| ADLWKLGLRAILELGPL | -0.165 ± 1 |
| ADWMFRFMKERRQMVWNTRI | 0.044 ± 1.1 |
| AEDFVLAEEYI | -0.285 ± 0.76 |
| AEEQLLWFCYFRELKILNIF | inactive |
| AEKQVCLAQKFLNLQLIFRW | 1.72 ± 0.12 |
| AEYIWWMVPVMKELVNEV | 0.362 ± 0.38 |
| AEYKCAFFMSLNAVALDKRY | 3.2 ± 0.12 |
| AFAFINIWKHLYIFQGQPSL | inactive |
| AFCLTLTGACLSMSDVARFT | 4.19 ± 0.098 |
| AFELSVTLCSTEMLQHRCIG | -0.081 ± 1.1 |
| AFFNE | 6.023 ± 0.039 |
| AFGRTTKKDVCLFGYPKQVE | -0.235 ± 0.46 |
| AFIRPIVSLVVLSQGV | 0.827 ± 0.6 |

| Substance | amyloid nucleation score |
| --- | --- |
| AFLFSRDCMERWTMYDGLWW | -0.063 ± 0.42 |
| AFTLQIHGFSVIVTASLQVS | -0.642 ± 1.1 |
| AFVCMRVVLICKIRLNFVRA | -0.519 ± 0.5 |
| AFYWVWDLDSGICNVSIFRL | -0.995 ± 0.34 |
| AGHWLCLVTNFVVRGGDKLF | 2.76 ± 0.13 |
| AGKFSWDNPYILLVNTI | inactive |
| AGMHLRVWHSDTHHWLLLNR | 3.76 ± 0.074 |
| AGSARRLGLMPRGSGYALGW | 1.44 ± 0.17 |
| AILNAVGCNWGTRCDGLSVQ | -0.213 ± 0.48 |
| AILYDHSYSYWVSFRNVKCK | 0.215 ± 0.65 |
| AINLSDKAARVPLFK | -0.093 ± 0.34 |
| AISPVLC | 1.9 ± 0.43 |
| AITSLYSRSLFLVLTCTVCF | 5.683 ± 0.055 |
| AIVDFTKNFIQCAY | inactive |
| AIWVMVANSMHCCVA | 8.622 ± 0.027 |
| AKGLG | 1.52 ± 0.31 |
| AKHERSIMVDVMSGRCSTLS | 1.07 ± 0.24 |
| AKLEVQA | -0.978 ± 0.36 |
| AKPTRGSCSGT | 2.79 ± 0.12 |
| AKVCFFKHESPMGQVGAY | -1.2 ± 0.54 |
| AKVSSMVQECNLYLELETRL | inactive |
| AKYSSLKNMLYGFRRDANMG | 0.296 ± 0.65 |

| Substance | amyloid nucleation score |
| --- | --- |
| ALDGVRNSEMGKRVSGVCEY | 0.89 ± 0.28 |
| ALEFNT | 4.14 ± 0.1 |
| ALENSDSELCETAWFFHFMH | 0.185 ± 0.8 |
| ALFQECYPGMGNYQGSVATT | 1.09 ± 0.35 |
| ALFTLRVMLTTYYWQGMAEF | 0.296 ± 0.31 |
| ALIKTLYY | -0.305 ± 0.48 |
| ALILECRVRSRS | 4.16 ± 0.12 |
| ALISSPANCAISWITCILVV | 5.947 ± 0.034 |
| ALIYCVFSFPFEAYDYMRFR | inactive |
| ALLDCMWCTCVCKVSSGVVH | inactive |
| ALLQICCSFIIYHTLLPAPA | 6.11 ± 0.064 |
| ALLWWRVKLSAHYRYGLNYW | 0.27 ± 0.4 |
| ALMLWKCKARTCISPQRRGV | 0.448 ± 0.4 |
| ALSNGNVLHGLSMLSYMHCW | -0.388 ± 1.1 |
| ALSSNPVLSCKLC | 6.917 ± 0.027 |
| ALWVKGMFGGTMTRGILFLC | -0.369 ± 1.1 |
| ALYCERCYWPV | 0.092 ± 0.53 |
| ALYETTVPLLVWLGA | 0.463 ± 0.24 |
| AMAVLALHTVRSQLP | 5.988 ± 0.037 |
| AMFSEVYASHQVVPYPLSLS | 0.746 ± 0.62 |
| AMPSRDLITR | 2.52 ± 0.075 |
| AMRGI | 1.26 ± 0.23 |

| Substance | amyloid nucleation score |
| --- | --- |
| AMVLFDGNVLWIHDRSCRRI | 0.862 ± 0.53 |
| AMYEH | 0.518 ± 0.46 |
| AMYIIAFSPTK | 1.36 ± 0.67 |
| ANGIFAEGGVREDSIH | inactive |
| ANGLVPYVTFLVLYALHTGT | 1.41 ± 0.38 |
| ANHVSKDIFVNCEVKVPHVW | 5.937 ± 0.051 |
| ANPTADP | 0.578 ± 0.29 |
| ANRWSMQGSERASSANWHRW | 4.63 ± 0.054 |
| ANSNIHLVPMTLSTDEVPLP | 0.413 ± 0.43 |
| APCNKESIKRARGWAVRWSW | 3.12 ± 0.077 |
| APFARSCDNWILGIFVFILG | 6.125 ± 0.042 |
| APFCSIVTTDVP | -0.363 ± 1.1 |
| APKGMTLFPQMLTLMCNTVG | 0.56 ± 0.74 |
| APPLTLELQYGWPLQRPLTK | 0.275 ± 0.33 |
| AQGILVLLSSD | 0.23 ± 0.47 |
| AQISVSYGIWDSCTC | 8.773 ± 0.032 |
| AQTWMAKTISKDAVGGSPLS | 0.272 ± 0.56 |
| ARLLSG | 0.626 ± 0.5 |
| ARNTDNPMSNGPYIWIGPY | 1.21 ± 0.2 |
| ARRKVSHNV | 0.205 ± 0.77 |
